# According to paper PMC10372118:
# Legend:
# Assay in all cases: BLI
# [1] = molecular target: human ACE2 polymorphism K26R (rs4646116) (human) (UniProt Q9BYF1)
# [2] = molecular target: human ACE2 polymorphism S19P (rs73635825) (human) (UniProt Q9BYF1)
# [3] = molecular target: truncated human ACE2 (residues 19-613 with a C-terminal AviTag and 6xHis-tag), biotinylated (human) (UniProt Q9BYF1)
# [4] = molecular target: human ACE2 polymorphism E35K (rs1348114695) (human) (UniProt Q9BYF1)
Substance,Kd [1] [nM],Kd [2] [nM],t1/2 [3],Kd [4] [nM]
SARS-CoV-2 Omicron BA.2 RBD (from UniProt P0DTC2) (domain or fragment),5.18,4.97,162 s,–
SARS-CoV-2 RBD of Beta (B.1.351) (from UniProt P0DTC2) (domain or fragment),–,–,165,–
SARS-CoV-2 RBD of Delta (B.1.617.2) (from UniProt P0DTC2) (domain or fragment),–,–,144 s,43.3
"SARS-CoV-2 ancestral receptor-binding domain (RBD), recombinant (from UniProt P0DTC2) (domain or fragment)",–,14.4,–,–
